IC50 (pM): inhibition of IL-8 released by IL-1β stimulation, human whole blood, 100 pM rhIL-1β data for one substance are collected here from US20140017249A1.

This assay addresses IL-1 receptor (UniProt P14778). The assay can be described thus: cell-based or functional assay.
UniProt P14778, sequence (P14778 18-569 limits assumed): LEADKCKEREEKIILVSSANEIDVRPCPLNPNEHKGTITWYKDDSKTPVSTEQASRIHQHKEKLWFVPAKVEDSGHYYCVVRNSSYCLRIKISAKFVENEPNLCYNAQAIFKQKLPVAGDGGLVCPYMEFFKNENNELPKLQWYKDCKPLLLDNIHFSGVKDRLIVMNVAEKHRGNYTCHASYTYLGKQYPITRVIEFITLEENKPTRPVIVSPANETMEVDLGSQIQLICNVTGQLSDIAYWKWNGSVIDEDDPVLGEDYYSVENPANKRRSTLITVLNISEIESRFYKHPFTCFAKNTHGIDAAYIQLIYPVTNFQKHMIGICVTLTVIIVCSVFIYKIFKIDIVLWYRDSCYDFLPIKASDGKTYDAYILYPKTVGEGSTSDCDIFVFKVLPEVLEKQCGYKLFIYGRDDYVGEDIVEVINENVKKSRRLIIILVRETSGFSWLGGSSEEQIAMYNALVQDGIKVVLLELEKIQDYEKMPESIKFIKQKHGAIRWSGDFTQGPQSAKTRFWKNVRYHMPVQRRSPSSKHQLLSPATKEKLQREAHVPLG

For the substance “Kineret® (anakinra) (from UniProt P18510 26-177) (ligand)”, the IC50 (pM): inhibition of IL-8 released by IL-1β stimulation, human whole blood, 100 pM rhIL-1β was determined as 53.4 pM.
